According to patent US20230002480A1:

Assays:
Assay in all cases: cell-based or functional assay
[1] = target: HIV-1 Env of pseudovirus 235-47 (clade CRF02_AG) (HIV-1)
[2] = target: HIV-1 Env of pseudovirus BJOX025000.01.1 (clade CRF01_AE (T/F)) (HIV-1)
[3] = target: HIV-1 Env of pseudovirus C4118.c09 (clade CRF01_AE) (HIV-1)
[4] = target: HIV-1 Env of pseudovirus R1166.c01 (clade CRF01_AE) (HIV-1)
[5] = target: HIV-1 Env of pseudovirus R2184.c04 (clade CRF01_AE) (HIV-1)
[6] = target: HIV-1 Env of pseudovirus T255-34 (clade CRF02_AG) (HIV-1)
[7] = target: HIV-1 Env of pseudovirus T278-50 (clade CRF02_AG) (HIV-1)

## PG16 (antibody)
[1]
  IC50, titer in TZM.bl cells: 0.092 µg/mL
  IC80, titer in TZM.bl cells: 4.51 µg/mL
[2]
  IC50, titer in TZM.bl cells: 0.071 µg/mL
  IC80, titer in TZM.bl cells: > 50 µg/mL
[3]
  IC50, titer in TZM.bl cells: 0.022 µg/mL
  IC80, titer in TZM.bl cells: 0.143 µg/mL
[4]
  IC50, titer in TZM.bl cells: 0.28 µg/mL
  IC80, titer in TZM.bl cells: 4.38 µg/mL
[5]
  IC50, titer in TZM.bl cells: 0.67 µg/mL
  IC80, titer in TZM.bl cells: > 50 µg/mL
[6]
  IC50, titer in TZM.bl cells: 0.024 µg/mL
  IC80, titer in TZM.bl cells: 0.125 µg/mL
[7]
  IC50, titer in TZM.bl cells: 0.227 µg/mL
  IC80, titer in TZM.bl cells: 18.6 µg/mL
